target: His-tagged human IL-18BP (human) (UniProt O95998); assay: AlphaLISA of free IL-18BP
Sequence (O95998 31-194): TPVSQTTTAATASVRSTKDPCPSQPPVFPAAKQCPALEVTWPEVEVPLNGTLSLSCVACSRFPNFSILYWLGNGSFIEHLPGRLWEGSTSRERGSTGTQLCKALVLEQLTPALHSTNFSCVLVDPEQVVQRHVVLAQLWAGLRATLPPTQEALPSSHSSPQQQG

Row | Kd [nM] | Binder
1 | 723 | C316 + Matriptase (ligand) MAAEPVEDNSINFVAMKFIDNTLYFIAEDDENLESDSGRVANLVGYFGKLKSKLSIIRNLNDQVLFIDQGNRPLFEDMTDSDARDNAPRTIFIISMYADSQPRGMAVAISVKCEKISTLSAENKIISFKEMNPPDNIKDTKSDIIFFQRSVPGHDNKMQFESSSYEGYFLAAEKERDLFKLILKKEDELGDRSIMFTVQNED
2 | 8550 | C323 (ligand) MAAEPVEDNSINFVAMKFIDNTLYFIAEDDENLESDRGRRVANLVGGSGYFGKLKSKLSIIRNLNDQVLFIDQGNRPLFEDMTDSDARDNAPRTIFIISMYADSQPRGMAVAISVKCEKISTLSAENKIISFKEMNPPDNIKDTKSDIIFFQRSVPGHDNKMQFESSSYEGYFLAAEKERDLFKLILKKEDELGDRSIMFTVQNED
3 | 1880 | C325 (ligand) MAAEPVEDNSINFVAMKFIDNTLYFIAEDDENLESDRGRRPLGLAGGSGYFGKLKSKLSIIRNLNDQVLFIDQGNRPLFEDMTDSDARDNAPRTIFIISMYADSQPRGMAVAISVKCEKISTLSAENKIISFKEMNPPDNIKDTKSDIIFFQRSVPGHDNKMQFESSSYEGYFLAAEKERDLFKLILKKEDELGDRSIMFTVQNED
4 | 158 | C325 + MMP9 (ligand) LAGGSGYFGKLKSKLSIIRNLNDQVLFIDQGNRPLFEDMTDSDARDNAPRTIFIISMYADSQPRGMAVAISVKCEKISTLSAENKIISFKEMNPPDNIKDTKSDIIFFQRSVPGHDNKMQFESSSYEGYFLAAEKERDLFKLILKKEDELGDRSIMFTVQNED
5 | 586 | C318 + Matriptase (ligand) MAAEPVEDNSINFVAMKFIDNTLYFIAEDDENLESDSGRVANYFGKLKSKLSIIRNLNDQVLFIDQGNRPLFEDMTDSDARDNAPRTIFIISMYADSQPRGMAVAISVKCEKISTLSAENKIISFKEMNPPDNIKDTKSDIIFFQRSVPGHDNKMQFESSSYEGYFLAAEKERDLFKLILKKEDELGDRSIMFTVQNED
6 | 2100 | C326 (ligand) MAAEPVEDNSINFVAMKFIDNTLYFIAEDDENLESDRGRRVANPLGLAGSGYFGKLKSKLSIIRNLNDQVLFIDQGNRPLFEDMTDSDARDNAPRTIFIISMYADSQPRGMAVAISVKCEKISTLSAENKIISFKEMNPPDNIKDTKSDIIFFQRSVPGHDNKMQFESSSYEGYFLAAEKERDLFKLILKKEDELGDRSIMFTVQNED
7 | 36.5 | C324 + MMP9 (ligand) YFGKLKSKLSIIRNLNDQVLFIDQGNRPLFEDMTDSDARDNAPRTIFIISMYADSQPRGMAVAISVKCEKISTLSAENKIISFKEMNPPDNIKDTKSDIIFFQRSVPGHDNKMQFESSSYEGYFLAAEKERDLFKLILKKEDELGDRSIMFTVQNED
8 | 139 | C326 + MMP9 (ligand) LAGSGYFGKLKSKLSIIRNLNDQVLFIDQGNRPLFEDMTDSDARDNAPRTIFIISMYADSQPRGMAVAISVKCEKISTLSAENKIISFKEMNPPDNIKDTKSDIIFFQRSVPGHDNKMQFESSSYEGYFLAAEKERDLFKLILKKEDELGDRSIMFTVQNED
